Holding throughout (type): in vivo
Series [1] in a line: Crossing of the blood brain barrier. Conditions: by passive transcytosis mechanism. From the text:
(§1) Therefore, using our targeted therapy, a small amount of IF7-SN38 is required to be injected to patients. The efficiency of IF7-SN38 is unprecedented in mice, in particular for the brain malignancies. […] It is believed that IF7-SN38 would work far better than PEGylated SN38 by targeting malignant tumors including brain malignancy. The low dosage, specificity, and easily degrading nature of IF7-SN38 in targeted cells to release SN38, are the major factors for the superiority of our drug to PEG-SN38.

In another series the test system is tumors. The series is described as follows: Treatment of mice with tumors using IF7-SN38.
Excerpt: as §1

The subject of series [2] is human colon HCT116 tumors. The series is described as follows: IF7-SN38 injected intravenously into nude mice carrying human colon HCT116 tumors. The following applies: intravenous, low dosages.

Residues, ends and D or L forms follow the SMILES beside them. *: point of attachment. X1 = CCc1c2c(nc3ccc(OC(=O)[C@H]4CC[C@H](CNC(=O)[C@H]5CC[C@H](CN6C(=O)CC(*)C6=O)CC5)CC4)cc13)-c1cc3c(c(=O)n1C2)COC(=O)[C@]3(O)CC

Regarding `CCc1c2c(nc3ccc(OC(=O)[C@H]4CC[C@H](CNC(=O)[C@H]5CC[C@H](CN6C(=O)CC(SC[C@H](NC(=O)[C@H](CCCNC(=N)N)NC(=O)[C@H](CCC(N)=O)NC(=O)[C@H](Cc7c[nH]c8ccccc78)NC(=O)[C@H](CC(C)C)NC(=O)[C@H](CC(C)C)NC(=O)[C@H](Cc7ccccc7)NC(=O)[C@@H](N)[C@@H](C)CC)C(=O)N[C@@H](CCCNC(=N)N)C(=O)N[C@@H](CCCNC(=N)N)C(=O)O)C6=O)CC5)CC4)cc13)-c1cc3c(c(=O)n1C2)COC(=O)[C@]3(O)CC` (stereo partly drawn) [IF7-SN38] (H-IFLLWQRC(X1)RR-OH; N-terminus and C-terminus assumed), in series [1], the blood brain barrier entry is “overcomes blood brain barrier”. Besides, the “side effects in the treated mice” value in the series on tumors is “without producing any side effects”. The side effects entry in series [2] is given as “no apparent side effects”.

(Values after patent US20200030452A1, “Process for the Manufacture of a Tumor-Vasculature Targeting Antitumor Agent” (priority 2016, published 2020).)
